Legend:
caspase-3 [1] = target: T1, caspase-3 (Homo sapiens, UniProt P42574); test: Caspase-3 bioluminescent assay with L27V and PBI-3741; type: biochemical; conditions: luminescence, 3 hrs at room temperature
T1 sequence (P42574 29-175 limits assumed): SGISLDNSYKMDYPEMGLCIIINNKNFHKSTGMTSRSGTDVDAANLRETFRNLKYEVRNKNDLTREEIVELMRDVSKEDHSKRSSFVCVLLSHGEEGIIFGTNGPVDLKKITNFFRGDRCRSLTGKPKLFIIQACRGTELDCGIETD
T1 sequence (P42574 176-277 limits assumed): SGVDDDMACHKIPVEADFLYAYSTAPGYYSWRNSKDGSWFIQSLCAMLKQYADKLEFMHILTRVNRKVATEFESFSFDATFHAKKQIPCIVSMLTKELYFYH
Method: (§1) 2. The L27V variant was used in a bioluminescent assay using a pro-coelenterazine substrate comprising the DEVD caspase-3 cleavage sequence “DEVD” disclosed as SEQ ID NO: 581). Purified caspase-3 enzyme (1 mg/mL) in 100 mM MES pH 6 (50 μL) was mixed with 227 nM L27V02 variant and 47 μM PBI-3741 (z-DEVD-coelenterazine-h (“DEVD” disclosed as SEQ ID NO: 581)) in assay buffer (50 μL). Reactions were incubated for 3 hrs at room temperature, and luminescence detected as previously described. The assay with the L27V variant was compared to a firefly luciferase version of the assay, CASPASE-GLO® 3/7-Assay system (Caspase-Glo; Promega Corp.).

caspase-3 [2] = test: as above; type: biochemical; conditions: luminescence, 3 hrs at room temperature
Method: as §1

[3] = Km of L27V reversion variants for native coelenterazine; type: biochemical
Method: Relative activities <1 indicate the reversion is detrimental compared to the residue at that site in the L27V variant. Relative activities >1 indicate the reversion is favorable for activity compared to the residue at that site in the L27V variant. Some additional data on these mutants indicated the following: 166K, 54F, 54A and L27V were tested for thermal stability. The T1/2 60° C. for 166K, 54F, and 54A were 87, 74, and 33%, respectively, indicating these substitutions cause a reduction in thermal stability. […] This indicates higher substrate affinity for L27V, particularly for the position 54 substitutions.

[4] = Exposure of L27V to 3 M urea; type: physicochemical; conditions: 30 min at 25° C.
Method: A 0.31 mg/mL stock of purified L27V variant was diluted 100,000-fold into buffer (PBS+1 mM DTT+0.005% IGEPAL) and incubated with 3 M urea for 30 min at 25° C. and then mixed 1:1 (50 μL+50 μL) with an assay reagent containing 100 μM PBI-3939 (previously described). The reactions were read on a TECAN® INFINITE® F500 luminometer as described previously (for 100 min; 1 min read intervals) (FIG. 89).

[5] = test system: antioxidant response element (ARE); test: ARE transcriptional reporter, reverse transfection, HEK293 cells; type: cell-based, human; conditions: 24 h, 100 ng DNA
CRE [6] = test: CRE transcriptional reporter, bulk transfection, HEK293 cells; type: cell-based, human
Method: (§2) The transcriptional reporter containing […] and 9B8 opt-P was used in the bulk transfection of HeLa cells
(§3) HEK293, NIH3T3, or HeLa cells were plated to a single well of a 6-well tissue culture plate the day before transfection at a density of 4.5×10^5 cells/well in 3 mL complete medium (DMEM+10% FBS+1×NEAA+1× sodium pyruvate) for HEK293 cells, 3×10^5 cellsNvell in 3 mL complete medium (DMEM+10% fetal calf serum (FCS)+1×NEAA+1× sodium pyruvate) for NIH3T3 cells, or 9.9×10^5 cells/well in 3 mL complete medium (DMEM+10% FBS+1×NEAA) for HeLa cells. Cells were grown overnight at 37° C.
(§4) 3,300 ng of reporter plasmid DNA in 155 4 OPTI-MEM® was mixed with 9.9 μL FUGENE® HD transfection reagent, vortexed briefly, and incubated at room temperature for 10 min. The CRE transcriptional reporters were used to transfect HEK293 and NIH3T3 cells. The HRE transcriptional reporters were used to transfect HeLa cells. The reporter mixture was added to cells and mixed by gentle rocking followed by incubation at 37° C. for 6 hrs (HEK293 and NIH3T3) or 3 hrs (HeLa). Cells were then trypsinized and resuspended in medium (DMEM+10% FBS+1×NEAA+1× sodium pyruvate for HEK293 cells, DMEM+10% FCS+1×NEAA+1× sodium pyruvate for NIH3T3 cells, or DMEM+10% FBS+1×NEAA for HeLa cells), followed by plating to the individual wells of a 96-well plate (20,000 cells/100 μL for HEK293, 10,000 cells/100 4 for NIH3T3, or […] for HeLa) and incubated at 37° C. overnight.
(§5) FSK (CRE stimulator) or 17-AAG (HRE stimulator; 17-Allylamino-demethoxy geldanamycin) in OPTI-MEM® was added to the cells (10 nM or 10 μM final concentration for FSK; 1 nM or 1 μM final concentration for 17-AAG) and incubated at 37° C. for 4 hrs (FSK) or 6 hrs (17-AAG). Plates were removed from the incubator and allowed to equilibrate to room temperature for 25 min. Cells were lysed with 100 μL lytic reagent as described above for the forward transfection. Luminescence was measured on a GLOMAX® Luminometer.

CRE [7] = test: CRE transcriptional reporter, bulk transfection, NIH3T3 cells; type: cell-based
Method: as §2, §3, §4, §5

[8] = test system: cAMP-response element (CRE); test: cAMP transcriptional reporter in HEK293 cells (Example 36); conditions: for fold-induction: FSK 5 hrs

Row | Molecule | (+) caspase (caspase-3 [1]) | (−) caspase (caspase-3 [2]) | Km [3] [µM] | reduction of activity by 3M urea [4] | RLU (20 μM sulphoraphane) [5] | RLU (20 μM tBHQ) [5] | baseline (CRE [6]; HEK293, 10 nM FSK, 4 h) | RLU (10 mM FSK) (CRE [6]; HEK293, 4 h) | Response (CRE [6]; HEK293, FSK) | baseline (CRE [7]; NIH3T3, 10 nM FSK, 4 h) | RLU (10 mM FSK) (CRE [7]; NIH3T3, 4 h) | Response (CRE [7]; NIH3T3, FSK) | induced luminescence higher than Luc2 transcriptional reporter [8] | induced luminescence higher than induced Renilla transcriptional reporter [8] | fold-induction ([8]; 30 ng of DNA) | fold-induction ([8]; 100 ng of DNA)
1 | L27V: 9B8 opt+K33N variant with L27V, T39T, K43R, Y68D (protein) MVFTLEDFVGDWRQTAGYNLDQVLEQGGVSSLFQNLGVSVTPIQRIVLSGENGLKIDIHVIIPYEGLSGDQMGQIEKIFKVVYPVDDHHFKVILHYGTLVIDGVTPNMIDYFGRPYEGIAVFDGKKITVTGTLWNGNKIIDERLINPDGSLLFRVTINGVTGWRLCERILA | 11,532 | 803 | 16 | approximately 50% |  |  |  |  |  |  |  |  |  |  |  | 
2 | 9B8 opt: codon optimized version of the 9B8 variant (protein) MVFTLEDFVGDWRQTAGYNLDQVLEQGGLSSLFQKLGVSVTPIQKIVLSGENGLKIDIHVIIPYEGLSGYQMGQIEKIFKVVYPVDDHHFKVILHYGTLVIDGVTPNMIDYFGRPYEGIAVFDGKKITVTGTLWNGNKIIDERLINPDGSLLFRVTINGVTGWRLCERILA |  |  |  |  | 89,600,000 RLU | 120,000,000 RLU | 39,700,000 | 654,000,000 RLU | 16 | 9,187,000 | 23,600,000 RLU | 2.6 | approximately 1.5 logs | approximately 2.5 logs | 360 | 109

From US8809529B2, “Imidazo[1,2-α]pyrazine derivatives” (Promega Corporation, priority 2010, dated 2014)
